These results are taken from JP2005330292A (dated 2005).

Changes are numbered by the printed parent chain.

The target in assay [1] is T1, ヒト組織因子(TF)(ヒト膀胱癌細胞J82上に発現) (human, UniProt P13726 33-295).
T1 construct: whole, on cells; Target of the cell ELISA; also called ヒトTF; 抗原
As to the kind of experiment: cell ELISA on fixed J82 cells; chimeric antibody as the reference.

The target of assay [2] is T2, 可溶型ヒトTF(アミノ酸配列1-219のC末端にFLAGペプチドを連結、CHO細胞発現) (human, UniProt P13726 33-251).
T2 construct: also called shTF; 可溶型TF
Nature of the assay: dot blot of shTF on nitrocellulose: native, 8 M urea-denatured, and 8 M urea + 5 mM DTT.

Assay [3] concerns the target T1, ヒト組織因子(TF)(ヒト膀胱癌細胞J82上に発現). Nature of the assay: cell ELISA on fixed J82 cells. For orientation: ELISA stands for enzyme-linked immunosorbent assay.

B1: H鎖キメラ/L鎖キメラ抗体(キメラATR-5抗体) (antibody, V domains shown)
VH: EVQLQQSGTNLVRPGALVKLSCKGSGFNIKDYYMHWVKQRPEQGLEWIGGNDPANGHSMYDPKFQGKASITADTSSNTAYLQLSSLTSEDTAVYFCARDSGYAMDYWGQGTSVTVSS
VL: DIKMTQSPSSMYASLGERVTITCKASQDIKSFLSWYQQKPWKSPKTLIYYATSLADGVPSRFSGSGSGQDYSLTINNLESDDTATYYCLQHGESPYTFGGGTKLEIK
notes: Mouse ATR-5 V regions joined to human C regions; Both an IgG1 (N5KG1(V)) and an IgG4 (N5KG4P) kappa vector were built; also called ch-ch; chATR-5
As for B1, the binding result in assay [1] and in assay [2] was “binds” in each case.

B2: H鎖ヒト型化バージョンc/L鎖キメラ抗体 (antibody, V domains shown)
VH: QVQLLESGAVLARPGTSVKISCKASGFNIKDYYMHWVKQRPGQGLEWIGGNDPANGHSMYDPKFQGRVTMLVDTSKNQFSLRLSSVTAADTAVYYCARDSGYAMDYWGQGTLVTVSS
VL: B1 VL
notes: Human IgG4 kappa (vector N5KG4P); also called c-ch
Consider B2, for which the binding result in assay [3] was “binds”.

B3: H鎖ヒト型化バージョンb/L鎖ヒト型化バージョンb抗体 (antibody, V domains shown)
VH: QVQLLESGAVLARPGTSVKISCKASGFNIKDYYMHWVKQRPGQGLEWIGGNDPANGHSMYDPKFQGRVTITADTSTNTAYMELSSLRSEDTAIYYCARDSGYAMDYWGQGTLVTVSS
VL: DIQMTQSPSSLSASVGDRVTITCKASQDIKSFLSWYQQKPGKAPKLLIYYATSLADGVPSRFSGSGSGTDYTLTISSLQPEDFATYYCLQHGESPYTFGGGTKVEIK
notes: Human IgG4 kappa (vector N5KG4P); also called b-b; bb
Take B3: the binding result in assay [3] and in assay [2] was “binds” each time.

B4: H鎖ヒト型化バージョンi/L鎖ヒト型化バージョンb抗体 (antibody, V domains shown)
VH: B3 VH with N77S, A79V, Y80F, I93V
VL: B3 VL
notes: Human IgG4 kappa (vector N5KG4P); also called i-b; ib
For the molecule B4, the binding result in assay [3] and in assay [2] was “binds” throughout.

B5: H鎖ヒト型化バージョンi/L鎖ヒト型化バージョンb2抗体 (antibody, V domains shown)
VH: QVQLLESGAVLARPGTSVKISCKASGFNIKDYYMHWVKQRPGQGLEWIGGNDPANGHSMYDPKFQGRVTITADTSTSTVFMELSSLRSEDTAVYYCARDSGYAMDYWGQGTLVTVSSAS
VL: B3 VL with G41E, L46S
notes: Human IgG4 kappa (vector N5KG4P); also called i-b2; ib2
As for B5, the binding result in assay [3] and in assay [2] was “binds” in each case.
